From the nanobody polyreactivity screen of Harvey et al. (2022)

Test: yeast display, Sf9 membrane polyspecificity reagent, FACS + sequencing; frameworks hold sequencing errors
Method in brief: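 Genes from sorted yeast were amplified by colony PCR, read by MiSeq 2 × 250 sequencing and filtered on CDR length. These cells carried a synthetic nanobody library in Saccharomyces cerevisiae BJ5465 and were sorted by FACS into low and high (top ~1%) gates on anti-HA and streptavidin fluorescence. Polyreactivity is labelled according to the gate of origin.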

Row | Sequence | polyreactivity (PSR sort gate)
1 | QVQLVESGGCLVQAGGSLRLSCAASGRIFPGYAMVWYRQAPGKERELVAAISASGGSTYYADSVKGRFTISRDNAKNSVYFQIISLKPEDTAVYYCNAVYRLIRFDYWGQGSQVTVSS | high polyreactivity
2 | QVQLVESGGGLVQAGGRLRLSCAASGFTFSRNAMGWYRQAPGKERELVAAITASTSRTYYADSVKGRFTISRDNAKNTVYLQMTSLKQEDSAVYYCNAGRPGRGPYGYWGQGTQVTVSS | high polyreactivity
3 | QVQLVESGGGLVQAGGSFRLSCAASGRIFSPNAMGWYRQAPGKEREFVAAINDRGGNTYYADSVKGRFTISRDNAKNTVYLQMNSLKPEDTAVYYCAATVTVFYTRYYYWGQGTQVTVSS | high polyreactivity
4 | QVQLVESGGGLVQAAGSLRLSCAASGRTFYVYDMGWYRQAPGKERELVAVISSSGSTNYADSVKGRFTISGDNAKNSVYLQMNSLKPEDTAVYDCYRRRWYFFSLDYWGQGTQVTVSS | high polyreactivity
5 | QVQLVESGGGLVQAGGSLRLSCAAAGSIFRGYAMGWYRQEPEKERELVADISRRGGSTYYADSVKGRFTISRDNAKNTVYLQMNSLKPEDTAVYYCAKDGTGAGTYDYWGQGTQVTVSS | low polyreactivity
6 | QDPLVESGGGVVQAGGSLRLSCAASGSTFSDYAMGWYRQAPGKERELVAAISVSDGSTYYADSVKGRFTISRDIAKNSVYLQMNSLKPEETAVYYCAAEYPYFVYSYFRFDYWGQGTQVTVSS | low polyreactivity
7 | QVQLVESGGGLVQAGGSLRLSCAASGSIFGGYAMGWYRQAPVKERELVARIRVSGGRTYYSDSVKGRFTISRDNAKNTVYLQRNSLKPEDTAVYYCNALLAGRRVARGYDSWGQGTQVTVSS | high polyreactivity
8 | QVQLVESGGGLVQAGGSLRLSCAASGYTFNRYAMGWYRQAPGKERELVAAITRGGTTYYADSVKGRFTISRDNAKNTVYLQMNSLKPEDTAVYYCNKFQPSGQYFKMGYWGQGTQVTVSS | high polyreactivity
9 | QVQLVESGGGLVQAGGSLRLSCAASGRIFFTYAMGWYRQAPGKERELVAAIDRSGTSTYYADSVKGRFTISRDNAKNTVYLQMNRLKPEDTAVYNCAARPNPNYDEMDYWGQGTQVNVSS | low polyreactivity
10 | QVQLVESGGGLVQAGGSLRLSCAASGITFKSNAMGWYRQAPGKERELVAAISRRASSTYYADSVKGRFTISRDNAKNTVYLQRNSLNPEDTAVYYCNAVLPVYRTNMDYWGQGTQVSVSS | high polyreactivity
11 | QVQLVESGGGLVQAGGSLRLSCAASGSTFRVNAMGWYRQAPGKERELVAVITSGGSTYADSVKGRFTISRDNAKNTVYLQMNSLKPEDTAVYYCAAESRWSWVHWSAYTYDYWGQGTQVTVSS | low polyreactivity
12 | QVQLVESGGGLVQAGGSLRLSCAASGSTFWPYAMGWYRQAPGKERELVAAIRVIGGSKYYADSVKGRFTISRDNAKNTVYLQMNSLKPEDTAVYYCNAYRPGGARFYARYRYDYWGQGTQVTVSS | low polyreactivity
13 | QVQLVESGGGLVQAGGSLRLSCAASGLIFENNAMGWYRQAPGKERELVAAITKGGGSTYYADSVKGRFTISRDNAMNTVYLQMNSLKPEDTAVYYCAKVHPWHRYWQYWYDYWGQGTQVTVSS | low polyreactivity
14 | QVQLQESGGGLVQAGGSLRLSCAASGYNSFSGYMGRYRQAPGKEREFVDSITPGRSTYYADSVKGRFTISRDNAEITVYLQMNSLKPEDTGVYYCAADDSRTEQHDYWGQGTQVTVSS | high polyreactivity
15 | QVQLVESGGGLVQAGGSLRLSCAASGRTFQLYAMGWYRQAPGKQRELVAAIRTGGSTNYADSVKGRFTISRDNAKNTVYLQMNSLKPEDTAVYYCAAVQRTDRSAHYSWGQGTQVTVSS | low polyreactivity
16 | QVQLVESGGGLVQAGGSLRLSCAASGRIFSRYAMGWYRQAPGKERELVAAITQSGTSTYYADSVKGRFTISRDNAKNTVYLQMKSLKPEDTAVYYCNAYRQYRYDYWGQGTQVTVSS | low polyreactivity

Row | Sequence | polyreactivity (PSR sort gate)
17 | QVQLVESGGGLVQAGGSLRLSCAASGLTFSYYAMGWYRQAPGKERELVAGISSSGGTTYYADSVKGRFTISRDNAKNTVYLQMNSLKPEDTAVYYCATRRHYGSFWYDYWGQGTQVTVSS | high polyreactivity
18 | QVQLEESGGGLVQAGGSLRLSCAASGSTYYYYAMGWYRQAPGKERELVAAISRSGITYYADSVKGRFTISRDNAKNTVYLQMNSLKPEDTAVYYCAAGRRFDQSMYYWGQGTQVTVSS | high polyreactivity
19 | QVQLVESGGGLVQAGGSLRLSCAASGRTFRRNAMGWYRQAPGKERELVAAINTGGGTYYADSVKGRFTISRDHAKNTVYLQMNSLKPEDTAVYYCNAGTRYGSFSYVKYDWGQGTQVTVSS | high polyreactivity
20 | QVQLVDSGGGLDQAGGSLRLICDASGSIFWWNAMGWYRQAPGKETELVAAINWSTGRTYYADSVKGRFTISRDNAKNTVYLQMNSLKPEDTAVYYCGADVWTPYLISLKSGYDYWGQGTQLTVSS | low polyreactivity
21 | QVQLVESGGGLVQAGGSLRLSCAASGSTFRYYAMGWYRQAPGKERELVAAINYSGGRTYYADSVKGRFTISRDNAKNTVYLQMNCVKPEDSAVYYCAADWSYLAVTDSTSDYDPNYGYWGQGTQVNVSS | high polyreactivity
22 | QVQLVESGGGLVQAGGSLRLCCAASGYIFGWYTMGWYRPAPGKERELVAAISGGGRTYYADSVKGRFTISRDNAKNTVYLQKNSLKPEDTAVYYCNAYSTYIKYDYWGQGTQVTVSS | high polyreactivity
23 | QVQLVESGGGLVQAGASLRLSCAASGFIFAINTMGWNLQAPGKETELVAGINWRGSSKYYADSVKGRFTISRDNAKNTVYLQMNSLKPEDTAVYYCAARRFWGSDYDYWGLGTQVTVSS | high polyreactivity
24 | QVQLVESGGGLVQAGGSLRLSCAASGRIFNDYAMGWYRPAPGKESELVANYADSVKGRFTISRDNAKNTVYLQMNSLKPEDTAVFYCAADFPSFPDFRPEYDYWGQGTQVTVSS | low polyreactivity
25 | QVQLVESGGGLVQAGGSLRLSCAASGSTFTYNDMGWYRPAPGKERELVATIDSTTRTYYADSVKGRFTISRDNAKNSVYLQMNCLKPEDTAVYYCAADLTWAYFYYLFYRYDYWGQGTKVTVSS | low polyreactivity
26 | QVQLVESGGGLVQAGGSLRLSCAASGIIFPYYAMGWYRQAPGKESELVAAISQSGGSTYYADSVKGRFTISRDNAKNTVFFQMNSVKPEDTAVYYCDKFIPSYHDGDYWGQGTQVTVSS | low polyreactivity
27 | QFQLEESRRGLDQAGGSLRLSCAASGSIFTLYDMGWYRQAPGKERELVAAITSGGSTDYADSVKGRFTISRDKAKNTVFLQMNSLKPEDTAVYYCAADTFYIYEDVLYVQGDYYWGQGTQVTVSS | low polyreactivity
28 | QVQLVESGGGLVQAGGSLRLSCAASGSIFKTNAMGWYRQAPGKERELVAAIRASGGSTYYADSVKGRFTISRDNAKNTVYLQMNSLKPEDTAVYYCAARYWFKYYWGQGTQVTVSS | high polyreactivity
29 | QVQLVESGGGLVQAGGSLRLSCAASGRTFSWNAMGWYRQAPGKERELVAAISNSGGSTYYADSVKGRFTISRDNAKNTVYLQMNSLKPEDTAVYYCAVYRYYGFSLWYDYWGQGTQVTVSS | low polyreactivity
30 | QVQLVESGGGLVQAGGSLRLSCAASGSIFTANAMGWYRQAPGKERELVAAISRSGGNTYYADSVKGRFTISRDNAKNTVYLQMNSLKPEDTAVYYCAARQKGTGNYWGQGTQVTVSS | high polyreactivity
31 | QVQLVESGGGLVQAGGSLRLSCAASGRIFGRYVMGWYRQAPGKERELVAVITGGGTRTYYADSVKGRFTISRDNAKNTVYLQMNSLKPEDTAVYYCAAPYRPDVDYWGQGTQVTVSS | high polyreactivity
32 | QVQHVESGGGLVQAGGSLRLSCAASGLTFSTYDMGWYRQAPGKERDLVAAITYSGGSTYYADSVKGRFTISRDHAKNTVYLQMNSLKPEDTAVYYSATTWYFVASWYVAIYDYWGQGTQVTVST | low polyreactivity
